Results on two compounds are retold here after patent publication US20130172235A1, “ORAL TREATMENT OF INFLAMMATORY BOWEL DISEASE” (Novozymes A/S, priority 2011, published 2013).

For this data set, the system named is Dextran Sodium Sulphate (DSS)-induced colitis. Briefly: 10-Day Dextran Sodium Sulphate (DSS)-induced colitis model in the mouse. The data set is classed as in vivo, Male C57BL/6 mice. Further details: key to Disease Activity Index (DAI): clinical DAI score, daily maximum 12. The following applies: for Disease Activity Index (DAI): mean ± SEM, n=10; for additional DAI score without the change in body weight (only stool consistency and rectal bleeding): oral, 10-day treatment; for additional DAI score without the change in body weight (only stool consistency and rectal bleeding) / inhibition of the disease activity index (DAI): vs. vehicle. An excerpt: 10-Day Dextran Sodium Sulphate (DSS)-Induced Colitis Model in the Mouse
The aim of the following study was to determine the anti-inflammatory activity of human beta defensin 2 in an acute (10-days) model of inflammatory bowel disease (colitis) induced by oral dextran sodium sulphate (DSS) administration in the mouse.
Study design: animals were divided into 5 experimental groups. Each group consisted of 10 males: Group A: Treated with Control vehicle (PBS) p.o. twice daily. Group B: Treated with methylprednisolone (1 mg/kg p.o. twice daily). Group C: Treated with hBD2 (0.05 mg/kg p.o. twice daily). Group D: Treated with hBD2 (0.5 mg/kg p.o. […]). Group E: Treated with hBD2 (5 mg/kg p.o. […]). Animal allocation to all experimental groups was done in a randomized manner. A maximum of 5 mice were housed in each cage (as per Directive 86/609/EEC). All animals were weighed on their arrival at the laboratory and prior to the administration of the test items.
The control vehicle and hBD2 were administered orally with the use of a sterile cannula in a dosing volume of 10 ml/kg body weith. The animals of all groups recieved 2 doses daily (at 9.00 h and 17.00 h) of the corresponding test item (test, reference or vehicle) for 10 consecutive days (experimental days 1-10).
Colitis was induced in mice by supplementing their drinking water with DSS 2% for 7 days. On Day 1 all mice were weighed and marked according to their experimental groups. The drinking bottle of each cage was filled with the DSS solution, making sure all bottle lids were mounted properly and that none were congested. On Day 3 any remaining solution in the bottles was emptied and refilled with fresh DSS solution. This procedure was repeated again on Day 5. On Day 8 any remaining solution was discarded and replaced with autoclaved water. Animals were sacrificed 2 days later on Day 10.
Daily clinical assessment of DSS-treated animals was carried out, with the calculation of a validated clinical Disease Activity Index (DAI) ranging from 0 to 4 according to the following parameters: stool consistency, presence or absence of rectal bleeding and weight loss:
Bodyweight loss was calculated as the percent difference between the original bodyweight (Day 1) and the actual bodyweight on each experimental day (2-10). The appearance of diarrhoea is defined as mucus/faecal material adherent to anal fur. Rectal bleeding is defined as diarrhoea containing visible blood/mucus or gross rectal bleeding. The maximum score of the DAI each day is 12.
On day 10, two hours after the last administration of control vehicle, hBD2 or prednisolone, the animals were killed by an overdose of anaesthetic. Their colons were removed and their length and weight measured after exclusion of the caecum. Two sections (proximal and distal) of colon were taken from each animal and preserved in neutral buffered formalin for subsequent histological analysis (haematoxylin and eosin staining) according to the following scoring system:
Description Score: No changes observed (0). Minimal scattered mucosal inflammatory cell infiltrates, with or without minimal epithelial hyperplasia (1). Mild scattered to diffuse inflammatory cell infiltrates, sometimes extending into the submucosa and associated with erosions, with minimal to mild epithelial hyperplasia and minimal to mild mucin depletion from goblet cells (2). Mild to moderate inflammatory cell infiltrates that were sometimes transmural, often associated with ulceration, with moderate epithelial hyperplasia and mucin depletion (3). Marked inflammatory cell infiltrates that were often transmural and associated with ulceration, with marked epithelial hyperplasia and mucin depletion (4). Marked transmural inflammation with severe ulceration and loss of intestinal glands (5). […]

Where [1] appears, read: prednisolone 1 mg/kg p.o. twice daily (Group B), day 10.

Ends that are not written are not given here.

For the compound `C[C@H]1C[C@@H]2[C@H]([C@@H](O)C[C@@]3(C)[C@H]2CC[C@]3(O)C(=O)COC(=O)CCC(=O)O)[C@@]2(C)C=CC(=O)C=C12` [Methylprednisolone 21-hemisuccinate, reference compound], the “additional DAI score without the change in body weight (only stool consistency and rectal bleeding)” value is “very significant anti-inflammatory activity”. Under “Prednisolone 1 mg/kg p.o. twice daily, Day 6 as printed, P < 0.01 vs. vehicle”, the “Disease Activity Index (DAI)” value is 7 ± 0.33. Under setting [1], the “histological injury induced by DSS in the distal colon” value was “significantly reduced” and the “histological injury induced by DSS in the proximal colon” value is reported as “significantly reduced”. In addition, the body weight entry (prednisolone 1 mg/kg p.o. twice daily (group B), from day 2 until the end of the study) is “significant decrease”. In addition, under “reference item prednisolone 1 mg/kg p.o. twice daily”, the “inhibition of the disease activity index (DAI)” value is given as “significant inhibition”.
With “Human beta defensin 2 (GIGDPVTCLKSGAICHPVFCPRRYKQIGTCGLPGTKCCKKP; ends and bridges not checked; cysteine pairing not given here; listed as Homo sapiens) [hBD2, human beta defensin 2 (hBD2]”, the “additional DAI score without the change in body weight (only stool consistency and rectal bleeding)” value is reported as “very significant anti-inflammatory activity”. Further, under “hBD2 0.05 mg/kg p.o., Day 6, max score 12, P < 0.01 vs. vehicle”, the “Disease Activity Index (DAI)” value amounted to 1.2 ± 0.59. Besides, for the setting “hBD2 0.05 mg/kg p.o., Day 7, P < 0.05 vs. vehicle”, the “Disease Activity Index (DAI)” value is given as 1.9 ± 0.66. For the setting “hBD2 0.05 mg/kg p.o., Day 8, P < 0.001 vs. vehicle”, the “Disease Activity Index (DAI)” value is given as 4.5 ± 0.86. In addition, the “Disease Activity Index (DAI)” value (hBD2 0.05 mg/kg p.o., Day 9, P < 0.001 vs. vehicle) amounted to 5.6 ± 0.54. Further, the “Disease Activity Index (DAI)” value (hBD2 0.05 mg/kg p.o., Day 10, P < 0.05 vs. vehicle) is 8 ± 0.73. For the same compound, the “Disease Activity Index (DAI)” value (hBD2 0.5 mg/kg p.o., Day 6, P < 0.05 vs. vehicle) was 1.7 ± 0.67. The “Disease Activity Index (DAI)” value (hBD2 0.5 mg/kg p.o., Day 9, P < 0.05 vs. vehicle) was 7.1 ± 0.61. In addition, under “hBD2 0.5 mg/kg p.o., Day 10, P < 0.01 vs. vehicle”, the “Disease Activity Index (DAI)” value was determined as 7.3 ± 0.7. Besides, under “hBD2 5 mg/kg p.o., Day 3, P < 0.05 vs. vehicle”, the “Disease Activity Index (DAI)” value came to 0.5 ± 0.27. For the same compound, the “Disease Activity Index (DAI)” value (hBD2 5 mg/kg p.o., Day 4, P < 0.05 vs. vehicle) is 0.6 ± 0.27. Moreover, the “Disease Activity Index (DAI)” value (hBD2 5 mg/kg p.o., Day 5, P < 0.05 vs. vehicle) is 1.8 ± 0.76. The “Disease Activity Index (DAI)” value (hBD2 5 mg/kg p.o., Day 6, P < 0.05 vs. vehicle) was found to be 1.4 ± 0.6. For the same compound, the “Disease Activity Index (DAI)” value (hBD2 5 mg/kg p.o., Day 7, P < 0.05 vs. vehicle) is reported as 2.1 ± 0.96. Besides, where the note is “hBD2 5 mg/kg p.o., Day 8, P < 0.01 vs. vehicle”, the “Disease Activity Index (DAI)” value is on record as 5.4 ± 0.87. Besides, the “Disease Activity Index (DAI)” value (hBD2 5 mg/kg p.o., Day 9, P < 0.001 vs. vehicle) came out at 5.2 ± 0.76. Also, under “hBD2 5 mg/kg p.o., Day 10, P < 0.001 vs. vehicle”, the “Disease Activity Index (DAI)” value is given as 5.6 ± 0.48. Also, for the setting “hBD2 at three dose levels (0.05, 0.5, 5 mg/kg) via the oral route”, the “inhibition of the disease activity index (DAI)” value is listed as “significant inhibition”. Moreover, the “histological damage in the proximal colon” value (hBD2 twice daily, at 3 dose levels, p.o., day 10) was “significant reduction”. The “histological damage in the distal colon” value (hBD2 twice daily, at the intermediate and high dose levels, p.o., day 10) is given as “significant reduction”. Also, the “body weight compared to the control group” value (high dose of the test item (5 mg/kg p.o.), day 10, P<0.05) is listed as “significant increase”.
